Data taken from patent US20240254220A1 (CENTRICSBIO, published 2024).

Columns and labels:
mouse CD300c = biological target: T1, mouse CD300c (mouse); test: cell-based or functional assay
T1 sequence (A2A7V7 whole entry, looked up): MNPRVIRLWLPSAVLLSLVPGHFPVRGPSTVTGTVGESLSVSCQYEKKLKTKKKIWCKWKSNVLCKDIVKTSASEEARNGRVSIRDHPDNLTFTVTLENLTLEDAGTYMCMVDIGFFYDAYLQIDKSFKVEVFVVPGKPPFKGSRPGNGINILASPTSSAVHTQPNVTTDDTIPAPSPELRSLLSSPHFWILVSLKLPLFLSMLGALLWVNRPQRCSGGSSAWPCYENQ

[1] = biological target: T2, CD300c on the surface of cells (human, UniProt Q08708 21-224); test: flow cytometry (FACS binding) on 293T cells overexpressing CD300c, FITC anti-human IgG (H+L), MFI
T2 construct: whole, on cells; also called cellular antigen
T2 sequence (looked up): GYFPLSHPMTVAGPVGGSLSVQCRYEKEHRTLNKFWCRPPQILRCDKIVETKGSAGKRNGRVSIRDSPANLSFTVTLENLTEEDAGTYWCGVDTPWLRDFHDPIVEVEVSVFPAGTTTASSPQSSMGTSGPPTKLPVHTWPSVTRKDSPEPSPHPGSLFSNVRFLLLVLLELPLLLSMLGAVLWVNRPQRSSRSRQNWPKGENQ
Protocol: In order to identify whether the anti-CD300c monoclonal antibody (CL7) recognizes a cellular antigen, FACS binding was performed.
Then, the cells were incubated with the anti-CD300c monoclonal antibody, which was serially diluted 3-fold starting from 10 μg/mL, in a CO₂ incubator for 30 minutes, and washed twice with FACS buffer. Then, the cells were incubated with FITC-conjugated anti-human IgG (H+L), which was diluted 1:100 in FACS buffer, in a CO₂ incubator for 30 minutes, and washed twice with FACS buffer. Subsequently, FITC signals were measured with a CytoFLEX instrument manufactured by Beckman Coulter, Inc., and then the MFI values were obtained using CytExpert program.

[2] = biological target: T3, CD300c antigen (11832-H08H, Sino Biological) (human, UniProt Q08708 21-183); test: binding ELISA, plate coated with CD300c antigen (8 µg/mL), HRP anti-Fc IgG detection
T3 construct: Bought antigen; also called CD300c protein; CD300 antigen-like family member C
T3 sequence (looked up): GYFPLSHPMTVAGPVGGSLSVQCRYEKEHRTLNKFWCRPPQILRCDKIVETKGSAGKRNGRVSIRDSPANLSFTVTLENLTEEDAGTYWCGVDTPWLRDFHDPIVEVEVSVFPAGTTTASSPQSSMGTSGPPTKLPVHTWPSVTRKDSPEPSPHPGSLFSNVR
Protocol: In order to identify the antigen-binding ability of the anti-CD300c monoclonal antibodies produced in Example 1, binding ELISA was performed. Specifically, a CD300c antigen (11832-H08H, Sino Biological) or a CD300a antigen (12449-H08H, Sino Biological) in a coating buffer (0.1 M sodium carbonate, pH 9.0) was dispensed into an ELISA plate at a concentration of 8 μg/mL per well, followed by incubation at room temperature for 3 hours to allow the antigen to be bound to the plate. The unbound antigens were removed by washing three times using phosphate buffered saline-Tween 20 (PBST), and then 300 μL of PBST supplemented with 5% bovine serum albumin (BSA) was added to each well, followed by incubation at room temperature for 1 hour and then washing using PBST. Then, an anti-CD300c monoclonal antibody was diluted in quadruplicate and added thereto, followed by incubation for 1 hour at room temperature for antigen binding. After 1 hour, washing was performed three times using PBST to remove unbound anti-CD300c monoclonal antibody, and then 4 μg/mL of an antibody for detection (HRP conjugated anti-Fc IgG) was added, followed by incubation again at room temperature for 1 hour. Subsequently, the unbound antibody for detection was removed using PBST, and then TMB solution was added, followed by incubation for 10 minutes for development. Then, 2 N sulfuric acid solution was added to terminate the development reaction, and the absorbance was measured at 450 nm to identify the antibodies specifically binding to the CD300c antigen.

[3] = biological target: T3, CD300c antigen (11832-H08H, Sino …); test: binding ELISA on coated CD300c antigen (800 ng/mL), anti-Fc secondary antibody, 450 nm (Experimental Example 2.3)
Protocol: CD300c antigen (250 ug/mL) was diluted to a concentration of 800 ng/mL in coating buffer (0.1 M sodium carbon ate, pH 9.0), placed into a 96-well microplate at 100 μL per well, and incubated at 4° C. overnight. The next day, the microplate was washed three times with 200 μL of PBST. Thereafter, 200 μL of a blocking buffer (5% skim milk) was added thereto, followed by blocking at room temperature for 1 hour. The anti-CD300c monoclonal antibody CL7 was diluted to 200 μg/mL in PBS, and the concentration thereof was checked by measurement using Nanodrop (product name: NanoDrop One/One, manufactured by Thermo Fisher Scientific). Subsequently, CL7 was diluted in quadruplicate with PBS starting from 10 μg/mL, and added at 100 μL each, followed by incubation at room temperature for 1 hour. After the incubation, the microplate was washed three times with […] of PBST. A secondary antibody (conjugated anti-Fc IgG) was diluted 1:10,000 in blocking buffer, and added at 100 μL, followed by incubation at room temperature for 1 hour, and then washed three times with 200 μL of PBST. Subsequently, TMB and hydrogen peroxide were mixed 1:1, and added at 100 μL per well, followed by incubation at room temperature for 7 to 9 minutes.

cancer cell proliferation inhibitory effect, CT26 mouse colon cancer cells, 10 ug/mL antibody, 5 days, CCK-8 (mouse CD300c): 66%
EC50 [1]: 2.7 nM
EC50 [2]: 0.047 µg/mL
EC50 (read off the curve) [3]: ~0.06 µg/mL
B1: CL7 (antibody, V domains shown)
VH: EVQLLESGGGLVQPGGSLRLSCAASGFTFSRYAMSWVRQAPGKGLEWVSAISGSGGSTYYADSVKGRFTISRDNSKNTLYLQMNSLRAEDTAVYYCARSSQGIFDIWGQGTLVTVSS
VL: QSVLTQPPSASGTPGQRVTISCSGNNIGTRRVHWYQQLPDTAPKLLIYSKNNRPSGVPDRFSGSKSGTSASLAISGLRSEDEADYYCAAWDDSLSGPVFGGGTKLTVL
notes: detected with anti-human IgG (H+L) and anti-Fc IgG; also called anti-CD300c monoclonal antibody CL7; anti-CD300c monoclonal antibody (CL7)
